From patent publication JP2020148511A (dated 2020) come the findings set out here.

The target in experiment [1] is A型インフルエンザウィルス亜型H1N1(A/Puerto Rico/8/1934)の核内タンパク質(NP抗原) (Influenza A virus H1N1 (A/Puerto …, UniProt P03466 1-498)). The experiment can be described thus: sandwich ELISA, […] (capture) […]. A general note: ELISA stands for enzyme-linked immunosorbent assay.
The target of experiment [2] is H1N1インフルエンザウィルスA型(A/Puerto Rico/8/34/Mount Sinai)由来のリコンビナント核内タンパク質 (Influenza A virus H1N1 (A/Puerto …, UniProt P03466 1-498)). The experiment can be described thus: phage ELISA, NP coated at 2 ug/mL, anti-M13 detection, A450.

B1: 抗体A2 (VHH antibody having the amino acid sequence of SEQ ID NO: 2) (VHH)
VHH: QVQLVESGGGLVQTGGPLRLSCAVSDRTDSNYAMGWFRQAPGKEREFVAAISGTGYVTGYADSARNRFTLSRDNGKNAVYLQMNSLEPADTAVYYCAATSDQRYPGPRSSGYDYWGQGTQVTVSS
Consider B1, for which the binding result in experiment [1] is listed as “binds”.

B2: 抗体A3 (VHH antibody having the amino acid sequence of SEQ ID NO: 3) (VHH)
VHH: EVQLVESGGGLVQPGGSLSLSCAASGFTFSNYYMGWFRQAPGKERQSLATVNSGGTGEAYADSIRGRFTISRDNAKNTVTLQMSSLQPEDTAVYYCARVDGRVLSTIVVSYDYWGQGTQVTVSS
On to B2, for which the binding result in experiment [2] and in experiment [1] was “binds” throughout.

B3: 抗体A1 (VHH antibody having the amino acid sequence of SEQ ID NO: 1) (VHH)
VHH: QLQLVESGGGLVQAGGSLRLSCAASGSAFSLYAMGWHRQAPGKQRELVAYITNGDITNYADSVQGRVIISRDNAKNTVYLHMNSLKPEDTAVYYCYAVGGRTFWGQGTQVTVSS
B3: the binding result in experiment [1] was “binds”.

B4: 抗体A4 (VHH antibody having the amino acid sequence of SEQ ID NO: 4) (VHH)
VHH: EVQLVESGGGLVQAGDSLRLSCAASGRTFINLDMGWFRQPPGKEREYVAAITRNGAITSYADSAKGRFTISRDNAKNTVSLEMNSLKPEDTGVYYCAAYSISNYGSGWYKPDYWGQGAQVTVSS
For the molecule B4, the binding result in experiment [1] is recorded as “binds”.
